Data set [1] addresses T1, thrombin (Bos taurus, UniProt P00735;P00735 P00735:318-366,P00735:367-625). Description: FP; K+ phosphate buffer pH 7.0, 20 C; Table 6 lists 1.5±0.3 uM. Particulars: tags: bovine thrombin dry powder, Sigma Aldrich; label: 5'-4QI; antiparallel G4.
Data set [2] concerns the target T1, thrombin. Description: FP; K+ phosphate buffer pH 7.0; duplex to G4 exchange, 36% fluorescence increase. Particulars: tags: bovine thrombin dry powder, Sigma Aldrich; label: 5'-4QI; partial duplex with 9-mer complement, 3' ssDNA.

B1: 4QI-TBA-E (structured_DNA)
DNA: GGTTGGTGTGGTTGGT
modifications: 5'-4QI merocyanine end-label; extra 3' dT
For B1, the affinity with thrombin [1], expressed as Kd, was 1100 nM.

B2: 4QI-TBA-E:TBA-C9 duplex (dsDNA)
DNA 1: GGTTGGTGTGGTTGGT
DNA 2: ACACCAACC
modifications: 5'-4QI on aptamer strand; extra 3' dT
On to B2, for which binding with thrombin [2] was put at a Kd of 1300 nM.

Broadly, the Kd is the concentration at which binding is half-saturated.
